Variants at the floor of the assay were thinned out.
B1: TPR 5TU (parent)
chain: GGAUCUUCUCGAUCUAACAAAAAAGACAAAUCUGCCACAAAGCUUGAGAGCAUCUUCGGAUGCAGAGGCGGCAGCCUUCGGUGGCGCGAUAGCGCCAACGUUCUCAACUAUGACACGCAAAACGCGUGCUCCGUUGAAUGGAGUUUAUCAUG

Variants of: B1
Test: polymerase ribozyme fitness, log enrichment relative to wild type (log ratio); higher = more active; in vitro selection for triplet polymerase activity
In short: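 The heterodimeric triplet polymerase ribozyme's subunits were each mutagenized into PCR-built libraries and transcribed. Every library was selected once, in triplicate, by annealing with a biotinylated primer, the partner subunit and triplets, incubating frozen at −7 °C, gel-excising extended constructs, capturing on streptavidin beads and running RT-PCR. Input and output libraries were Illumina-sequenced, with genotypes kept only at ≥10 input reads and ≥1 read per output. Fitness, from inverse-variance-weighted replicate averages, is the base-2 logarithm of genotype enrichment over wild-type enrichment.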

Variant	polymerase ribozyme fitness (log ratio)
A37C G42U G58A C96A G117U U146A	≤ -4.2
C35U U144G	1.13
C35U U144A	-0.455
C36U U144C	-1.23
C36U U55A G58A A91U C93U U127A U148C	≤ -4.2
C36A C57A C79A G83U C93G C114U	≤ -4.2
C36U G46A G70A G83C A120U G133C	-3.23
C36U U56A C85G C105A C116A	≤ -4.2
C36A U61G A64C C118A A147C	≤ -4.2
C35U C87U C96U C114U	-3.78
C36U G50C U53A G59C U78A	≤ -4.2
C35U U61A	-1.27
C36G A66U G68C	≤ -4.2
C36U G65C U102G G140C C149G	≤ -4.2
C35U G50U C93G	-3.56
C35U U77C G88A G124U	≤ -4.2
C35U C114U	-2.28
C35U C114A	-3.87
C36U A66G C87U C93U U135A	≤ -4.2
C36A C75A C79U A115U A120C C125U	≤ -4.2
C35U C85G	-2.73
C36A A91U C93G C118A A137U	≤ -4.2
C36A A91U U145C	≤ -4.2
A37C C87U A119U G128C	-3.46

Variant	polymerase ribozyme fitness (log ratio)
C36U A60G C75G G92C	≤ -4.2
C36U A41C A47C A49U U55A C76G G94A A110C A113G U148G	-4.13
A37C A73G G86A	-2.34
C36A A47U G74U G92C A115G C149G	≤ -4.2
C35U U53A G92U C103U C114G A115U A122U	≤ -4.2
C36U U55A C93U U144G	-1.07
A37C C72U G88C A89U A138U U145G	≤ -4.2
A37C C123U	0.207
C36A U55A G124A G141U	≤ -4.2
C36U U146G	-3.6
C35U U55G A60C A91U A119G A121U C149G	≤ -4.2
C36A C57U C63A G86A A147G	≤ -4.2
C36U C57G C69A U134C	-2.32
C36A U55A C57G C76A	-4.03
C36U C96G G117U G152A	-3.09
C36G C69A U78C C85U U102C U127A	≤ -4.2
A37C A41C U53A U56G G59A C79U C87A A113U U134A	≤ -4.2
C35U G59C C76G G124U	≤ -4.2
C36U C54G U55C C75U C93U U146A	≤ -4.2
C36U A52U U53C C79U A91U U135A	≤ -4.2
C36G A52C C95U U148A A150U	≤ -4.2
C36U U61G U82G C85U	-3.95
A37C A40G G50U G86A A97U	≤ -4.2
C36A C57A C99G A106U A115C	≤ -4.2

Variant	polymerase ribozyme fitness (log ratio)
C36U A39C U82C G84U A119C A120U G133C A142U	≤ -4.2
C36U C85A	-2.75
C36U C85U	-1.83
C36A G74C	≤ -4.2
C35U G65A G80U C95G G141C	-3.95
C36A A138U U145A A147C	-3.85
C36A A60G G143A	≤ -4.2
C36U C57A	-0.483
C36A G48A G50A C69G G71A	≤ -4.2
C36A G94A A121C	-4.03
C36A U55A G92A C96G G126C U144C	≤ -4.2
C36G U45G C54U A89U G94U C125G G126A	≤ -4.2
C35U U45A G59C C93G U144A	≤ -4.2
C36A C95U U104A C118G	≤ -4.2
C35U C93U	-1.74
C36U C114U C131A	≤ -4.2
C35U C57G G65U U144C	-4.2
A37C A41C U56A G67C C85A G126A C131A G141A	≤ -4.2
C36A A110U A122U	≤ -4.2
C36U G141C	-2.17
C36U U56G U61A	≤ -4.2
C35U G50A U82C G141U	-4.1
A37C G58A	0.575
C36A G58A G67U G81C C103G A113U U134G G141U	≤ -4.2

Variant	polymerase ribozyme fitness (log ratio)
C36U U53A U78A G83A U90C	≤ -4.2
A37C C99U C118U G143A U144A	-3.39
C35U G92A	-3.33
C35U G70A G83A C116G A120C U134A	≤ -4.2
C35U G81C C85G	-1.5
C36G A39U A40U A60G U104A G136U G141A	≤ -4.2
C36G C43U C85U A115C C116A	-4.15
C36U U61A C95U U102C	-4
C36U A52C U55G G58C C125A C131G	≤ -4.2
C36U G59A G94U A107C G133C G140U U144G	≤ -4.2
C35U G50A U53A U56A C85A C93A C95U	≤ -4.2
C36U C93A A110C U139A	≤ -4.2
A37C G62C G86A C96G C99A	≤ -4.2
C36A C79U G88C A113G A150U	≤ -4.2
C36U C85A C93A C114U	≤ -4.2
C36A G50A A64U A66C A98U U104A U109G U148G	≤ -4.2
C36U G48U C96G C103G A121C	-2.74
A37C A98U	0.384
C35U C85A C103U A119U	-2.38
C36G A40C G42C C54U G68A C118G C131A U135G C149A	≤ -4.2
C35U C54A U55A G80C C108U U127A	≤ -4.2
C35U C85G A98U A115G C132A U135A	≤ -4.2
C35U G68U U90G G117A U144G	≤ -4.2
C36A A89U C116A A120U	-4.18

Variant	polymerase ribozyme fitness (log ratio)
C35U G58U C87U C114A A119C	-4
C36A C116A	-3.76
C35U C93A C132U A147C	-4.05
C35U G65C C76U C96A	≤ -4.2
C36A U55A	-3.27
C36U G92C G100U G117A A122G	≤ -4.2
C36A A37C C43A U61A C85G	≤ -4.2
C36U A49C C95A U145C	≤ -4.2
C36G	-3.16
C36U	-0.919
C36A	-2.97
C36A C43G	≤ -4.2
C35U G59A C87U U144C	-1.17
C35U C76U C96A C125G A142G	-2.86
C36U C87U C93A C95G	≤ -4.2
C36U A49U C79A A106U A147C	≤ -4.2
A37C A49C U77A C87G A120G C131G	≤ -4.2
C36A A47U A52U U53A G59C A106G	≤ -4.2
C36G C95A C103U U134A A138C	≤ -4.2
C36U C95G	-2.94
C35U C95U C96A	-1.64
C36G C54G A97G A98U C99U U104A C105G G117A G133C A150U	≤ -4.2
C35U C87U	-0.746
C36U A97U U130C	-1.25

Variant	polymerase ribozyme fitness (log ratio)
C36U U56A C79G U90G A106G C125U	≤ -4.2
C35U G83C	-1.43
C35U C105G G126A	-2.32
C35U U45G G58A U61G C76U C85A C93G U104A A107C G152A	≤ -4.2
C35U G81C U109G C116U	-3.18
A37C C118U A121G	0.0889
C36A U82C C93U U135G	≤ -4.2
A37C C51A G92U A106C	≤ -4.2
C35U G59A	0.0486
C36A C51G C85A	≤ -4.2
C36A A49U C63U C79G C87U A106G G133A U144C	≤ -4.2
C36U C76U G124U	-1.95
C36A A64C G86C G133U	≤ -4.2
C35U A107U	-4.03
A37C C75U U77G A89C C93A A121C U148G U151G	≤ -4.2
C35U C116U	0.17
A37C G81C C85G C116G U144G	-4.04
C35U C93G G126A C131U U139A	-4.11
C36A U56G C103G A142G G143C	≤ -4.2
A37C A60U C63U G86U A98G	-3.99
C36U U61A C96G G133A	-3.93
C36U U82A G83A G84A G86U C93A C96U G117U	-3.98
C35U C93G A119G	-3.76
C35U C114U U139A	≤ -4.2

Variant	polymerase ribozyme fitness (log ratio)
C35U G83A C116A	-1.03
C35U G124A	-0.554
C35U G58A A150G	-1.55
C36U A106G C114G	-3.87
C36U C108U	≤ -4.2
C35U G86A	-1.37
C36A G143U	-4.12
C35U A147C	-0.582
C36A C85A C118U	-3.82
C35U U56A	0.225
A37C C95G U134G	-3.26
A37C C87A	≤ -4.2
C35U C54U G65U G83C C95U C103G A106G	≤ -4.2
C36A U56A U77G C87U U102A A119C	≤ -4.2
C36U A98U	-1.07
C36U C69A A91U G94U C118U A121U	≤ -4.2
C35U C54A G58C	-1.17
C35U C95U	-1.1
A37C A52G G84C U130A G143C	≤ -4.2
C35U C95U G126A	-1.49
C36G G92C A121C C125A	≤ -4.2
A37C A41U G50C G81U C95U U111A C118G U127C A142C	≤ -4.2
C35U U53A U135A G143C	-4.16

— the RNAGym collection of RNA variant scans (doi:10.1073/pnas.2313332121)
